# Source: paper PMC5957452, “Structural basis for overhang excision and terminal unwinding of DNA duplexes by TREX1” (PLoS Biology, 2018)
# B1: Three prime repair exonuclease 1 (TREX1), mouse, residues 1-242 (C-terminal transmembrane domain truncated) (enzyme, Mus musculus, UniProt Q91XB0 1-242, looked up)
# chain: MGSQTLPHGHMQTLIFLDLEATGLPSSRPEVTELCLLAVHRRALENTSISQGHPPPVPRPPRVVDKLSLCIAPGKACSPGASEITGLSKAELEVQGRQRFDDNLAILLRAFLQRQPQPCCLVAHNGDRYDFPLLQTELARLSTPSPLDGTFCVDSIAALKALEQASSPSGNGSRKSYSLGSIYTRLYWQAPTDSHTAEGDVLTLLSICQWKPQALLQWVDEHARPFSTVKPMYGTPATTGTT
# notes: TREX1, Mus musculus, residues 1-242, subcloned into the BamHI/XhoI site of pET28a; C-terminal transmembrane domain truncated; His-tagged or non-His-tagged (thrombin-treated) TREX1 was used for crystallization; Crystals also hold DNA substrates and Mg2+; also called mTREX1; wild-type TREX1; source: E. coli BL21-CodonPlus(DE3)-RIPL or Rosetta2(DE3)pLysS, purified (Ni-NTA, HiTrap Heparin, Superdex …)
# Biological target: the molecule itself
# Test: crystal structure; TREX1 (15-25 mg/mL) in 300 mM NaCl, 50 mM Tris-HCl pH 7.0 mixed with DNA substrates at molar ratio 1:1.5; four TREX1-DNA complex crystals, TREX1 dimer in the asymmetric unit
protein,measurement,value
B1,binding result,binds
